In EP2204447B1:

Biological target: streptavidin (UniProt P22629)
Assay: capture of cells on streptavidin coated magnetic beads, before selection

Sequence of UniProt P22629 (P22629 37-163 limits assumed): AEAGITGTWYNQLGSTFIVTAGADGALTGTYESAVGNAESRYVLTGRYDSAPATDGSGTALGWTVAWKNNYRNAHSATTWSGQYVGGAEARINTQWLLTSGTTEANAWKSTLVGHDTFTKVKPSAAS

- proportion of cells which bind to the beads: 0.02%
Substance: Ramos IgM (immunoglobulin of the unselected / wild-type Ramos Burkitt lymphoma cell line) (antibody)
